Laboratory results reported in patent US20150132307A1.

What was measured:
[1] = target: recombinant human IL-17 (Peprotech #200-17) (human) (UniProt Q16552); test: cell-based or functional assay
[2] = target: recombinant human IL-17 (Peprotech #200-17) (human) (UniProt Q16552); test: ELISA, coated IL-17 subtype 0.5 µg/ml, antibody 10 µg/ml, OD 405/492 nm
Human IL17B (human) = Human IL17B (human) (UniProt Q9UHF5); test: ELISA, coated IL-17 subtype, antibody 10 µg/ml, OD 405/492 nm
Human IL17C (human) = Human IL17C (human) (UniProt Q9P0M4); test: as above
Human IL17D (human) = Human IL17D (human) (UniProt Q8TAD2); test: as above
Human IL17E (human) = Human IL17E (human) (UniProt Q9H293); test: as above
Human IL17F (human) = Human IL17F (human) (UniProt Q96PD4); test: as above
[3] = target: cynomolgous IL-17A (cynomolgous); test: binding ELISA according to example 2; human and humanized IL17 antibodies compared (NVP-AIN-497 = 100)
[4] = target: recombinant human IL-17 (Peprotech #200-17) (human) (UniProt Q16552); test: as above
[5] = target: cynomolgous IL-17A (cynomolgous); test: binding ELISA according to example 2; mouse IL17 antibodies compared (Mab 317 = 100)
[6] = target: recombinant human IL-17 (Peprotech #200-17) (human) (UniProt Q16552); test: as above

recombinant human IL-17 (Peprotech #200-17) (human), sequence (Q16552 20-155 limits assumed): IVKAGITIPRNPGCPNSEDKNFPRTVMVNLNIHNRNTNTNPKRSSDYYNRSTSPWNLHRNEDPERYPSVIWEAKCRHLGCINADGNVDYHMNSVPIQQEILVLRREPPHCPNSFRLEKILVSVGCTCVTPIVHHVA
Human IL17B (human), sequence (Q9UHF5 21-180 limits assumed): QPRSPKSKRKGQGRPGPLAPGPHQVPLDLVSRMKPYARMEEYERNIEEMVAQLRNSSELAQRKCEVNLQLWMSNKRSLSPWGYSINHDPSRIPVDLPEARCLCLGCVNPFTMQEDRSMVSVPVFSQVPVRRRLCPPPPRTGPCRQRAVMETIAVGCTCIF
Human IL17F (human), sequence (Q96PD4 31-163 limits assumed): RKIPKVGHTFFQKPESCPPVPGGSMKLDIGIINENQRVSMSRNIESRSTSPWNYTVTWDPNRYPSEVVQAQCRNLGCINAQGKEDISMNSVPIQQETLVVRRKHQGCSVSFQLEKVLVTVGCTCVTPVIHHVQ
Human IL17C (human), sequence (Q9P0M4 19-197 limits assumed): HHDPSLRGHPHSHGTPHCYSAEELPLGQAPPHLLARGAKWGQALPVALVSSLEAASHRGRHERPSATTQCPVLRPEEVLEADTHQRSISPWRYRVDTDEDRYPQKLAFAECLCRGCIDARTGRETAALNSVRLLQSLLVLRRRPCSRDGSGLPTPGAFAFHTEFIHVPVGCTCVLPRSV
Human IL17E (human), sequence (Q9H293 33-177 limits assumed): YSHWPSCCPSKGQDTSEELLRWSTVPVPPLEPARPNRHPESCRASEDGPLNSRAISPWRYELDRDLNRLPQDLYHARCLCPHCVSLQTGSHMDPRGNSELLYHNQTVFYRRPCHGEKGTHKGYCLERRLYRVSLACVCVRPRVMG
Human IL17D (human), sequence (Q8TAD2 16-202 limits assumed): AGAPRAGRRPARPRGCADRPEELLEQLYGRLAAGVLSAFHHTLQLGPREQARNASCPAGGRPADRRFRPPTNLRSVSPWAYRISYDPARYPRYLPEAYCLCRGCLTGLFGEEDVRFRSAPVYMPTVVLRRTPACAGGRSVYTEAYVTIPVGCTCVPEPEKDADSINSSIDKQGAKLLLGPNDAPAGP

| IL-6 Inhibition IC50 (nM) (CCD-25SK cells, IL-17A + TNF-alpha) [1] | Binding (IL-17A binding set as 100) (% of IL-17A binding) [2] | Binding (IL-17A binding set as 100) (% of IL-17A binding) (Human IL17B (human)) | Binding (IL-17A binding set as 100) (% of IL-17A binding) (Human IL17C (human)) | Binding (IL-17A binding set as 100) (% of IL-17A binding) (Human IL17D (human)) | Binding (IL-17A binding set as 100) (% of IL-17A binding) (Human IL17E (human)) | Binding (IL-17A binding set as 100) (% of IL-17A binding) (Human IL17F (human)) | Relative binding to cynomolgous IL-17A [3] | Relative binding to human IL-17A [4] | Relative binding to cynomolgous IL-17A in % [5] | Relative binding to human IL-17A in % [6] | Substance |
| --- | --- | --- | --- | --- | --- | --- | --- | --- | --- | --- | --- |
| 2.8 nM | 100 |  |  |  |  |  |  |  |  |  | MAB 317 of R&D Systems (antibody) |
|  | 100 | 7 | 97 | 6 | 5 | 5 |  |  |  |  | Mab 16-7178-85 of eBioscience (antibody) |
|  | 100 | 2 | 2 |  | 3 | 62 | 100% | 100% |  |  | NVP-AIN-497 (WO 2006/013107) (antibody) |
|  |  |  |  |  |  |  |  |  | 124% | 122% | eBio64CAP17 (antibody) |
